# According to patent US20210260163A1:
# Target: IL-2Rα (on CTLL2 cells) (UniProt P01590)
# Assay: cell-based or functional assay
# IL-2Rα (on CTLL2 cells), sequence (P01590 22-268 limits assumed): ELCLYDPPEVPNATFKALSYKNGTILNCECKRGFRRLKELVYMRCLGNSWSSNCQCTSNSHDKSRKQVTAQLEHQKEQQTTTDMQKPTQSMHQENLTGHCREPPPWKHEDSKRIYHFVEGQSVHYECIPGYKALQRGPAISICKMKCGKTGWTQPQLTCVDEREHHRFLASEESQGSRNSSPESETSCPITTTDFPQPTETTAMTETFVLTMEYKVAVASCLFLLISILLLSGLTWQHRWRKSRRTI
row,EC50 in the CTLL2 cell-based activity assay,Substance
1,0.077 µM,HSA-IL-2-T3A/C125S-F42A/Y45A/L72G (SEQ ID NO: 126)
2,0.076 µM,HSA-IL-2-T3A/C125S-R38S/F42A/Y45A/E62A (SEQ ID NO: 127)
3,0.06 µM,IgG1FC (with LALA and Knob)-IL-2-T3A/C125S-R38S/F42A/Y45A/A73T (SEQ ID NO: 135) paired with Fc hole (SEQ ID NO: 194) (from UniProt P0DOX5 223-449) (Fc fusion)
4,0.06 µM,IgG1FC (with LALA and Knob)-IL-2-T3A/C125S-R38S/F42A/Y45A/E62A (SEQ ID NO: 132) paired with Fc hole (SEQ ID NO: 194) (from UniProt P0DOX5 223-449) (Fc fusion)
